Here are results for two proteins from publication PMC11098114 (Proceedings of the National Academy of Sciences of the …, 2024).

The data set concerns the molecule itself. Put plainly: SEC. In general terms: SEC sorts molecules by how far they enter the pores of the column.

B1: 3×Ala-MxEnc (natural protein, Myxococcus xanthus)
chain: MPDFLGHAENPLREEEWARLNETVIQVARRSLVGRRILDIYGPLGAGVQTVPYDEFQGVSPGAVDIVGEQETAMVFTDARKFKTIPIIYKDFLLHWRDIEAARTHNMPLDVSAAAGAAALCAQQEDELIFYGDARLGYEGLMTANGRLTVPLGDWTSPGGGFQAIVEATRKLNEQGHFGPYAVVLSPRLYSQLHRIYEAAAVLEIETIRQLASDGVYQSNRLRGESGVVVSTGRENMDLAVSMDMVAAYLGASRMNHPFRVLEALLLRIKHPDAICTLEGAGATERR
B1: the binding result is “binds”.

B2: 3×Asp-MxEnc (natural protein, Myxococcus xanthus)
chain: MPDFLGHAENPLREEEWARLNETVIQVARRSLVGRRILDIYGPLGAGVQTVPYDEFQGVSPGAVDIVGEQETAMVFTDARKFKTIPIIYKDFLLHWRDIEAARTHNMPLDVSAAAGAAALCAQQEDELIFYGDARLGYEGLMTANGRLTVPLGDWTSPGGGFQAIVEATRKLNEQGHFGPYAVVLSPRLYSQLHRIYEDDDVLEIETIRQLASDGVYQSNRLRGESGVVVSTGRENMDLAVSMDMVAAYLGASRMNHPFRVLEALLLRIKHPDAICTLEGAGATERR
B2: the binding result was “binds”.
